Reference: patent publication US20250084142A1 (INTARCIA THERAPEUTICS, published 2025)
Each block holds one binder with its values, some of them ahead of it. Starred links: 1 amine or outer side, 2 acyl side, 3 side chain; linkers in the order of their positions; H or OH if unused. Non-standard residues stand in square brackets, D forms with d. Groups on a side chain read outwards from the residue. No end group written: not given here. *: point of attachment. C20 diacid = O=C(O)CCCCCCCCCCCCCCCCCCC(=O)*; γGlu = O=C(O)[C@H](CCC(=O)[*:2])N[*:1]; NMeY = CN[C@@H](Cc1ccc(O)cc1)C(=O)O

Key:
NPY2R = target: T1, NPY2R; assay: cell-based or functional assay
T1 sequence (P49146 1-381, species assumed, looked up): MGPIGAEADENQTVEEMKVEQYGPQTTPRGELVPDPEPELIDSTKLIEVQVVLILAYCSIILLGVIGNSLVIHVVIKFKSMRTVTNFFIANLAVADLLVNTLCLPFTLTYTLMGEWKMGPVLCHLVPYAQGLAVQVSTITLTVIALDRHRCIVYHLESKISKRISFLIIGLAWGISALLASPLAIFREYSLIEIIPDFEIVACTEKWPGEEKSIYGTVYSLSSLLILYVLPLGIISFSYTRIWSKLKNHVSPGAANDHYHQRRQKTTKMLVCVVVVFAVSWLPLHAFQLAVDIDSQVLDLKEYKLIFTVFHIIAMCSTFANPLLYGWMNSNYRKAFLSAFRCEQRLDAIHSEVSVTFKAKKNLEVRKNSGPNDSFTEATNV

NPY5R = target: T2, NPY5R; assay: cell-based or functional assay
T2 sequence (Q15761 1-445, species assumed, looked up): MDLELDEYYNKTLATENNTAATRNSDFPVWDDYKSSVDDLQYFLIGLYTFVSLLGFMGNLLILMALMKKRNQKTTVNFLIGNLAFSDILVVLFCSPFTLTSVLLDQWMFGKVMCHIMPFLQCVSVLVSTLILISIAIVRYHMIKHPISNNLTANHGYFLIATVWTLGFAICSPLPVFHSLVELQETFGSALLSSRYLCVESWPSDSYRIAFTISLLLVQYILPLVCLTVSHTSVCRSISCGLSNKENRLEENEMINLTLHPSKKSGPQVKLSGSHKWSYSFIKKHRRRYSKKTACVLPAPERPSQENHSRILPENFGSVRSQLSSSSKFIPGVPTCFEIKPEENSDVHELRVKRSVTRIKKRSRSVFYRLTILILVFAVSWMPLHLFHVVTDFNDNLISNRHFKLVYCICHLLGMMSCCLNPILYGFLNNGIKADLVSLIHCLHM

NPY2R pEC50 (NPY2R): 8.9 -Log(EC50, M) | NPY5R pEC50 (NPY5R): 7.7 -Log(EC50, M)
B1: Compound A6 (peptide)
peptide: PKPK([γGlu-γGlu-C20 diacid])APGKDASPEEWNRYYADARHYLNWLTRQR[NMeY]-NH2
modifications: N-terminus assumed
SMILES: CC(C)C[C@H](NC(=O)[C@H](Cc1ccc(O)cc1)NC(=O)[C@H](Cc1c[nH]cn1)NC(=O)[C@H](CCCNC(=N)N)NC(=O)[C@H](C)NC(=O)[C@H](CC(=O)O)NC(=O)[C@H](C)NC(=O)[C@H](Cc1ccc(O)cc1)NC(=O)[C@H](Cc1ccc(O)cc1)NC(=O)[C@H](CCCNC(=N)N)NC(=O)[C@H](CC(N)=O)NC(=O)[C@H](Cc1c[nH]c2ccccc12)NC(=O)[C@H](CCC(=O)O)NC(=O)[C@H](CCC(=O)O)NC(=O)[C@@H]1CCCN1C(=O)[C@H](CO)NC(=O)[C@H](C)NC(=O)[C@H](CC(=O)O)NC(=O)[C@H](CCCCN)NC(=O)CNC(=O)[C@@H]1CCCN1C(=O)[C@H](C)NC(=O)[C@H](CCCCNC(=O)CC[C@H](NC(=O)CC[C@H](NC(=O)CCCCCCCCCCCCCCCCCCC(=O)O)C(=O)O)C(=O)O)NC(=O)[C@@H]1CCCN1C(=O)[C@H](CCCCN)NC(=O)[C@@H]1CCCN1)C(=O)N[C@@H](CC(N)=O)C(=O)N[C@@H](Cc1c[nH]c2ccccc12)C(=O)N[C@@H](CC(C)C)C(=O)N[C@H](C(=O)N[C@@H](CCCNC(=N)N)C(=O)N[C@@H](CCC(N)=O)C(=O)N[C@@H](CCCNC(=N)N)C(=O)N(C)[C@@H](Cc1ccc(O)cc1)C(N)=O)[C@@H](C)O

NPY2R pEC50 (NPY2R): 9.6 -Log(EC50, M) | NPY5R pEC50 (NPY5R): 7.1 -Log(EC50, M)
B2: Compound A8 (peptide)
peptide: PKPEAPGKDASPK([γGlu-γGlu-C20 diacid])EWNRYYADARHYLNWLTRQR[NMeY]-NH2
modifications: N-terminus assumed
SMILES: CC(C)C[C@H](NC(=O)[C@H](Cc1ccc(O)cc1)NC(=O)[C@H](Cc1c[nH]cn1)NC(=O)[C@H](CCCNC(=N)N)NC(=O)[C@H](C)NC(=O)[C@H](CC(=O)O)NC(=O)[C@H](C)NC(=O)[C@H](Cc1ccc(O)cc1)NC(=O)[C@H](Cc1ccc(O)cc1)NC(=O)[C@H](CCCNC(=N)N)NC(=O)[C@H](CC(N)=O)NC(=O)[C@H](Cc1c[nH]c2ccccc12)NC(=O)[C@H](CCC(=O)O)NC(=O)[C@H](CCCCNC(=O)CC[C@H](NC(=O)CC[C@H](NC(=O)CCCCCCCCCCCCCCCCCCC(=O)O)C(=O)O)C(=O)O)NC(=O)[C@@H]1CCCN1C(=O)[C@H](CO)NC(=O)[C@H](C)NC(=O)[C@H](CC(=O)O)NC(=O)[C@H](CCCCN)NC(=O)CNC(=O)[C@@H]1CCCN1C(=O)[C@H](C)NC(=O)[C@H](CCC(=O)O)NC(=O)[C@@H]1CCCN1C(=O)[C@H](CCCCN)NC(=O)[C@@H]1CCCN1)C(=O)N[C@@H](CC(N)=O)C(=O)N[C@@H](Cc1c[nH]c2ccccc12)C(=O)N[C@@H](CC(C)C)C(=O)N[C@H](C(=O)N[C@@H](CCCNC(=N)N)C(=O)N[C@@H](CCC(N)=O)C(=O)N[C@@H](CCCNC(=N)N)C(=O)N(C)[C@@H](Cc1ccc(O)cc1)C(N)=O)[C@@H](C)O

NPY2R pEC50 (NPY2R): 7.7 -Log(EC50, M) | NPY5R pEC50 (NPY5R): 8 -Log(EC50, M)
B3: Compound A5 (peptide)
peptide: PK([γGlu-γGlu-C20 diacid])PEAPGKDASPEEWNRYYADARHYLNWLTRQR[NMeY]-NH2
modifications: N-terminus assumed
SMILES: CC(C)C[C@H](NC(=O)[C@H](Cc1ccc(O)cc1)NC(=O)[C@H](Cc1c[nH]cn1)NC(=O)[C@H](CCCNC(=N)N)NC(=O)[C@H](C)NC(=O)[C@H](CC(=O)O)NC(=O)[C@H](C)NC(=O)[C@H](Cc1ccc(O)cc1)NC(=O)[C@H](Cc1ccc(O)cc1)NC(=O)[C@H](CCCNC(=N)N)NC(=O)[C@H](CC(N)=O)NC(=O)[C@H](Cc1c[nH]c2ccccc12)NC(=O)[C@H](CCC(=O)O)NC(=O)[C@H](CCC(=O)O)NC(=O)[C@@H]1CCCN1C(=O)[C@H](CO)NC(=O)[C@H](C)NC(=O)[C@H](CC(=O)O)NC(=O)[C@H](CCCCN)NC(=O)CNC(=O)[C@@H]1CCCN1C(=O)[C@H](C)NC(=O)[C@H](CCC(=O)O)NC(=O)[C@@H]1CCCN1C(=O)[C@H](CCCCNC(=O)CC[C@H](NC(=O)CC[C@H](NC(=O)CCCCCCCCCCCCCCCCCCC(=O)O)C(=O)O)C(=O)O)NC(=O)[C@@H]1CCCN1)C(=O)N[C@@H](CC(N)=O)C(=O)N[C@@H](Cc1c[nH]c2ccccc12)C(=O)N[C@@H](CC(C)C)C(=O)N[C@H](C(=O)N[C@@H](CCCNC(=N)N)C(=O)N[C@@H](CCC(N)=O)C(=O)N[C@@H](CCCNC(=N)N)C(=O)N(C)[C@@H](Cc1ccc(O)cc1)C(N)=O)[C@@H](C)O

NPY2R pEC50 (NPY2R): 10.3 -Log(EC50, M) | NPY5R pEC50 (NPY5R): 9 -Log(EC50, M)
B4: Compound A74 (peptide)
peptide: PKPEKPGK([γGlu-γGlu-C20 diacid])DASPEEWNRYYKDLRHYLNWLTRQRF-NH2
modifications: N-terminus assumed
SMILES: CC(C)C[C@H](NC(=O)[C@H](CC(=O)O)NC(=O)[C@H](CCCCN)NC(=O)[C@H](Cc1ccc(O)cc1)NC(=O)[C@H](Cc1ccc(O)cc1)NC(=O)[C@H](CCCNC(=N)N)NC(=O)[C@H](CC(N)=O)NC(=O)[C@H](Cc1c[nH]c2ccccc12)NC(=O)[C@H](CCC(=O)O)NC(=O)[C@H](CCC(=O)O)NC(=O)[C@@H]1CCCN1C(=O)[C@H](CO)NC(=O)[C@H](C)NC(=O)[C@H](CC(=O)O)NC(=O)[C@H](CCCCNC(=O)CC[C@H](NC(=O)CC[C@H](NC(=O)CCCCCCCCCCCCCCCCCCC(=O)O)C(=O)O)C(=O)O)NC(=O)CNC(=O)[C@@H]1CCCN1C(=O)[C@H](CCCCN)NC(=O)[C@H](CCC(=O)O)NC(=O)[C@@H]1CCCN1C(=O)[C@H](CCCCN)NC(=O)[C@@H]1CCCN1)C(=O)N[C@@H](CCCNC(=N)N)C(=O)N[C@@H](Cc1c[nH]cn1)C(=O)N[C@@H](Cc1ccc(O)cc1)C(=O)N[C@@H](CC(C)C)C(=O)N[C@@H](CC(N)=O)C(=O)N[C@@H](Cc1c[nH]c2ccccc12)C(=O)N[C@@H](CC(C)C)C(=O)N[C@H](C(=O)N[C@@H](CCCNC(=N)N)C(=O)N[C@@H](CCC(N)=O)C(=O)N[C@@H](CCCNC(=N)N)C(=O)N[C@@H](Cc1ccccc1)C(N)=O)[C@@H](C)O

NPY2R pEC50 (NPY2R): 9.7 -Log(EC50, M) | NPY5R pEC50 (NPY5R): 6 -Log(EC50, M)
B5: Compound A7 (peptide)
peptide: PKPEAPK([γGlu-γGlu-C20 diacid])KDASPEEWNRYYADARHYLNWLTRQR[NMeY]-NH2
modifications: N-terminus assumed
SMILES: CC(C)C[C@H](NC(=O)[C@H](Cc1ccc(O)cc1)NC(=O)[C@H](Cc1c[nH]cn1)NC(=O)[C@H](CCCNC(=N)N)NC(=O)[C@H](C)NC(=O)[C@H](CC(=O)O)NC(=O)[C@H](C)NC(=O)[C@H](Cc1ccc(O)cc1)NC(=O)[C@H](Cc1ccc(O)cc1)NC(=O)[C@H](CCCNC(=N)N)NC(=O)[C@H](CC(N)=O)NC(=O)[C@H](Cc1c[nH]c2ccccc12)NC(=O)[C@H](CCC(=O)O)NC(=O)[C@H](CCC(=O)O)NC(=O)[C@@H]1CCCN1C(=O)[C@H](CO)NC(=O)[C@H](C)NC(=O)[C@H](CC(=O)O)NC(=O)[C@H](CCCCN)NC(=O)[C@H](CCCCNC(=O)CC[C@H](NC(=O)CC[C@H](NC(=O)CCCCCCCCCCCCCCCCCCC(=O)O)C(=O)O)C(=O)O)NC(=O)[C@@H]1CCCN1C(=O)[C@H](C)NC(=O)[C@H](CCC(=O)O)NC(=O)[C@@H]1CCCN1C(=O)[C@H](CCCCN)NC(=O)[C@@H]1CCCN1)C(=O)N[C@@H](CC(N)=O)C(=O)N[C@@H](Cc1c[nH]c2ccccc12)C(=O)N[C@@H](CC(C)C)C(=O)N[C@H](C(=O)N[C@@H](CCCNC(=N)N)C(=O)N[C@@H](CCC(N)=O)C(=O)N[C@@H](CCCNC(=N)N)C(=O)N(C)[C@@H](Cc1ccc(O)cc1)C(N)=O)[C@@H](C)O

NPY2R pEC50 (NPY2R): 10.4 -Log(EC50, M) | NPY5R pEC50 (NPY5R): 8.9 -Log(EC50, M)
Binder: PKPEAPGK([γGlu-γGlu-C20 diacid])DASPKEWDRYYKDLRHYLNWLTRQRF-NH2 [Compound A76]

NPY2R pEC50 (NPY2R): 10.2 -Log(EC50, M) | NPY5R pEC50 (NPY5R): 8.5 -Log(EC50, M)
B6: Compound A78 (peptide)
peptide: PKPEK([γGlu-γGlu-C20 diacid])PGEDASPKEWDRYYKDLRHYLNWLTRQRF-NH2
modifications: N-terminus assumed
SMILES: CC(C)C[C@H](NC(=O)[C@H](CC(=O)O)NC(=O)[C@H](CCCCN)NC(=O)[C@H](Cc1ccc(O)cc1)NC(=O)[C@H](Cc1ccc(O)cc1)NC(=O)[C@H](CCCNC(=N)N)NC(=O)[C@H](CC(=O)O)NC(=O)[C@H](Cc1c[nH]c2ccccc12)NC(=O)[C@H](CCC(=O)O)NC(=O)[C@H](CCCCN)NC(=O)[C@@H]1CCCN1C(=O)[C@H](CO)NC(=O)[C@H](C)NC(=O)[C@H](CC(=O)O)NC(=O)[C@H](CCC(=O)O)NC(=O)CNC(=O)[C@@H]1CCCN1C(=O)[C@H](CCCCNC(=O)CC[C@H](NC(=O)CC[C@H](NC(=O)CCCCCCCCCCCCCCCCCCC(=O)O)C(=O)O)C(=O)O)NC(=O)[C@H](CCC(=O)O)NC(=O)[C@@H]1CCCN1C(=O)[C@H](CCCCN)NC(=O)[C@@H]1CCCN1)C(=O)N[C@@H](CCCNC(=N)N)C(=O)N[C@@H](Cc1c[nH]cn1)C(=O)N[C@@H](Cc1ccc(O)cc1)C(=O)N[C@@H](CC(C)C)C(=O)N[C@@H](CC(N)=O)C(=O)N[C@@H](Cc1c[nH]c2ccccc12)C(=O)N[C@@H](CC(C)C)C(=O)N[C@H](C(=O)N[C@@H](CCCNC(=N)N)C(=O)N[C@@H](CCC(N)=O)C(=O)N[C@@H](CCCNC(=N)N)C(=O)N[C@@H](Cc1ccccc1)C(N)=O)[C@@H](C)O
